According to publication PMC5518878:

Target: Rhodopsin
Test: Tango assay
Conditions: read off a plot

Substance	response (ATR, parent: est. 0.39)	response (vehicle, parent: est. 0.08)
human GRK1, full length, fused to the N-terminus of TEV protease (from UniProt Q15835) K46L	0.71	0.18
human GRK1, full length, fused to the N-terminus of TEV protease (from UniProt Q15835) K46Y	0.76	0.17
human GRK1, full length, fused to the N-terminus of TEV protease (from UniProt Q15835) K46W	0.77	0.2
